B1: HW-28 chimeric rabbit-human IgG1 LA/LA/PG (antibody, V domains shown)
VH: QKQLVESGGRLVTPGTPLTLTCTASGFSLSSNAMSWVRQAPGEGLQWIGTISSGGSTYYASWAKGRFTISKTSTTVTLKMTSLTTEDTATYFCARGADLHRLWGPGTLVTVSS
VL: SFVLTQPASVQVNLGQTVSLTCTGKPLSRSFASWYQQKPGQAPVLVIYRDTSRPSGVPDRFSGSSSGNTATLTISGAQAGDEADYYCATSDGSGSSYQYVFGGGTQLTVTG
notes: Fc-silenced (L234A/L235A/P329G) IgG1, lambda; Alexa Fluor 647-labeled in single-step flow cytometry; Cluster C-45
B2: HW-16 chimeric rabbit-human IgG1 LA/LA/PG (antibody, V domains shown)
VH: QSLEESGGRLVTPGTPLTLTCTASGFSLSSYAMSWVRQAPGKGLEWIGTMPTGGGTYYASWAKGRFTISKTSTTVDLQITSPTTEDTATYFCAKHWNIWGPGTLVTISS
VL: DIVLTQTPSSTSTAVGDTVTINCRASQSIGRNLAWFQQKPGQPPKLLIYRASNLASGVPSRFKGSGSRTQFTLTISGVQREDAATYYCLGSYSSSDTAFGGGTELEILR
notes: Fc-silenced (L234A/L235A/P329G) IgG1, kappa; Alexa Fluor 647-labeled in single-step flow cytometry; Cluster C-45
B3: HW-81 chimeric rabbit-human IgG1 LA/LA/PG (antibody, V domains shown)
VH: QKQLVESGGGLVTPGGTLTLTCTVSGFSLSSNGVSWVRQAPGKGLEYIGLIRSIGSTYYATWAKGRFTISKTSTTVDLKITSPTTEDTATYFCARGGYRNGFKLWGPGTLVTVSS
VL: QPVLTQSPSVSAALGASAKLTCTLSSAHKTYYIEWYQQQHPGKAPRYLMQLQSDGSYTKGTGVPDRFSGSSSGADRYLIISSVQAEDEADYICGVIDSAVYVFGGGTQLTVTG
notes: as for B1
B4: HW-56 chimeric rabbit-human IgG1 LA/LA/PG (antibody, V domains shown)
VH: QSVKESEGGLFKPTDTLTLTCTASGFTVSTNAVTWVRQAPGNGLEYIGTIGRSGSAYFASWAKRRSTLTRDINLNTVTLKMTSLTAADTATYFCVRGSPGYRTAISIWGPGTLVTISS
VL: AVMTQTPSSTSAAVEGTVTINCQASQSISNRLSWFQQKPGQPPKLLIYQASTLASGVPSRFKGSGSGTEFTLTISGVQREDAATYYCLGSYSSSDASFGGGTKLEIKR
notes: as for B2
B5: HW-8 chimeric rabbit-human IgG1 LA/LA/PG (antibody, V domains shown)
VH: QSLEESGGRLVTPGTPLTLTCTVSGFSLSSYAMSWVRQAPGKGLEWIGAISTGGSTTYASWAKGRFTISKTSSTTVDLKMTSLTTEDTATYFCVRHFRLWGPGTLVTISS
VL: QVLTQTPSSVSAAVGGTVTIKCQASQSIGSALAWFQQKPGQRPKLLIYRASNLASGVPSRFKGSGSGTEFALTISGVQREDAATYYCLGGAAAVWAFGAGTNVEIKR
notes: as for B2

Target: T1, HHLA2 (B7-H7)
T1 construct: coated protein in the ELISA; also called HHLA2-Fc (R&D Systems)
T1 chain: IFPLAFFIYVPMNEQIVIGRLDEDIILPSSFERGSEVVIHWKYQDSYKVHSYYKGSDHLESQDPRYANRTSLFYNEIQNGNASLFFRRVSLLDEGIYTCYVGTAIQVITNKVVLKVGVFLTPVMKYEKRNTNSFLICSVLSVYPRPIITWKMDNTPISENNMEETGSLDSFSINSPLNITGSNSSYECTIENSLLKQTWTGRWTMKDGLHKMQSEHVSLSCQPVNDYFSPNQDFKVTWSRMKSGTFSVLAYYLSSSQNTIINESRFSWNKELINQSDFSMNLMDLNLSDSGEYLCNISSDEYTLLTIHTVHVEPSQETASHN
Assay: ELISA on coated HHLA2-Fc, 150 ng IgG1; None 0.087
Experimental: Recombinant purified ECDs (50-150 ng) of each putative target protein were coated, incubated with 150 ng of the indicated primary antibody, and binding was detected using a peroxidase-conjugated anti-human Fab secondary antibody. Heatmap represents averages of technical triplicates. (8B) Target validation via siRNA knockdown. H929 cells were transfected with siRNA pools targeting the putative antibody targets ICAM1, CADM1, and PTPRG. Cells were then subjected to cognate IgG binding analysis via flow cytometry. (NT, non-targeting siRNA).
ELISA ELISA was conducted as described previously. Briefly, 50-150 ng of antigen was coated overnight in half-area 96-well plates at 4° C., blocked with 3% BSA at 37° C. for 1 h, and 150 ng of chimeric rabbit/human IgG1 was added, incubating for 2 h at 37° C. […] After incubating at 37° C. for 15 min-1 h (depending on intensity of controls), data were acquired using a SpectraMax M5 plate reader (Molecular Devices).

First: B1
Second: B2
The “ELISA Absorbance (405 nm-570 nm)” value of the first is higher: 0.122 for the first, 0.092 for the second.

Compared with B3, B4 is higher in “ELISA Absorbance (405 nm-570 nm)” value: 0.072 for the first, 0.076 for the second.

For B5, the “ELISA Absorbance (405 nm-570 nm)” value was 0.073.

target: T2, GARS, endogenous in H929 multiple myeloma cells (human, UniProt P41250 37-739, limits assumed); assay: flow cytometry, H929 + CADM1 siRNA; None 449; surface target GARS putative
T2 construct: Native protein pulled down from H929 lysates; also called Glycyl-tRNA synthetase; GlyRS
T2 sequence: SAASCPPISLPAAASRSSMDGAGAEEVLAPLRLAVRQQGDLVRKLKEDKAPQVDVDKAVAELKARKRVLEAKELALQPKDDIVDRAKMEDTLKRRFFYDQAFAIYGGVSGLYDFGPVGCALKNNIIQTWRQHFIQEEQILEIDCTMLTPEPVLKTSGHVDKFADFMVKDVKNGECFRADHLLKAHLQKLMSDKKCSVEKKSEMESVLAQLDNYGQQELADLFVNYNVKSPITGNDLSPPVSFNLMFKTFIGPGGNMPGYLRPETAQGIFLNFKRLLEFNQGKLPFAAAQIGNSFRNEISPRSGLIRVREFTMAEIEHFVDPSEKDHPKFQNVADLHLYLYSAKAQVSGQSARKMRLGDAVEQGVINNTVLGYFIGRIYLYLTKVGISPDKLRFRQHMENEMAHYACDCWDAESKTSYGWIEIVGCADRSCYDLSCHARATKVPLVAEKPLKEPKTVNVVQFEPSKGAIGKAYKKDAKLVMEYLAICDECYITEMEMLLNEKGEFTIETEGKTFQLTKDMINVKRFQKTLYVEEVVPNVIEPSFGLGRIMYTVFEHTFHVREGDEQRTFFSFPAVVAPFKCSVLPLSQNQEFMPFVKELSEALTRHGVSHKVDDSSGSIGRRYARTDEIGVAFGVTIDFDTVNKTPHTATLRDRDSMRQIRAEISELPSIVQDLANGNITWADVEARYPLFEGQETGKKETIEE

Going from B1 to B2, the “mAb binding (MFI)” value falls from 66800 to 45900.

First: B3
Second: B4
The “mAb binding (MFI)” value of the first is higher: 696000 for the first, 547000 for the second.

B5 was tested, and the “mAb binding (MFI)” value was 17000.

target: T2, GARS, endogenous in H929 multiple …; assay: flow cytometry, H929 + NT Green siRNA; None 416; surface target GARS putative

Compared with B1, B2 is higher in “mAb binding (MFI)” value: 50700 for the first, 59500 for the second.

First: B3
Second: B4
The “mAb binding (MFI)” value of the first is higher: 693000 for the first, 499000 for the second.

With B5 the “mAb binding (MFI)” value was 15500.

target: T2, GARS, endogenous in H929 multiple …; assay: flow cytometry, H929 + PTPRG siRNA; None 490; surface target GARS putative

Going from B1 to B2, the “mAb binding (MFI)” value falls from 41900 to 41600.

First: B3
Second: B4
The “mAb binding (MFI)” value of the first is higher: 630000 for the first, 479000 for the second.

B5 was tested, and the “mAb binding (MFI)” value was 13600.

target: T2, GARS, endogenous in H929 multiple …; assay: flow cytometry, H929 + NT Green siRNA; None 1.35; surface target GARS putative

Compared with B1, B2 is higher in “Cells stained (%)” value: 98.5% for the first, 99.1% for the second.

B3 and B4 are the same in “Cells stained (%)” value: 99.7% for the first, 99.7% for the second.

In the case of B5, the “Cells stained (%)” value is reported as 86.6%.

Reference: patent US20260049134A1 (UNIVERSITY OF FLORIDA RESEARCH FOUNDATION, published 2026)
